In publication PMC2756588:

T1: Abp1, P15891
T1 sequence (P15891 535-592, looked up): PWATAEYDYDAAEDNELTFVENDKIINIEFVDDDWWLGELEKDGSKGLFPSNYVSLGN

T2: Bbc1, P47068
T2 sequence (P47068 1-78, looked up): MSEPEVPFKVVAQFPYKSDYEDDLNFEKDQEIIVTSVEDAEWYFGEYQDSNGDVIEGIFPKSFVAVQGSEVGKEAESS

T3: Boi1, P38041
T3 sequence (P38041 1-86, looked up): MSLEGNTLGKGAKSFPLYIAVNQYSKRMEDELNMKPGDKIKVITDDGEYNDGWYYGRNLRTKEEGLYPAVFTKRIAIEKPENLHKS

T4: Boi2, P39969
T4 sequence (P39969 32-116, looked up): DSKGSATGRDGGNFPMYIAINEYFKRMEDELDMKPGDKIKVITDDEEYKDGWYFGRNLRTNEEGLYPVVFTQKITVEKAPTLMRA

T5: Bud14, P27637
T5 sequence (P27637 247-328, looked up): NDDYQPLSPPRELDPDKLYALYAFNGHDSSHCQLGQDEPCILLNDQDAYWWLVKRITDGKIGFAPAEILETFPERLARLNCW

T6: Bzz1-1, P38822
T6 sequence (P38822 478-572, looked up): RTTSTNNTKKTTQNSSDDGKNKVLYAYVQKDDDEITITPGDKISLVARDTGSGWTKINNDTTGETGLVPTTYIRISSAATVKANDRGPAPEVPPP

T7: Bzz1-2, P38822
T7 sequence (P38822 568-633, looked up): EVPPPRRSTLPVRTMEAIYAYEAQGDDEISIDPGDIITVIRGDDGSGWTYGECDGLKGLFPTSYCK

T8: Cdc25, P04821
T8 sequence (P04821 50-136, looked up): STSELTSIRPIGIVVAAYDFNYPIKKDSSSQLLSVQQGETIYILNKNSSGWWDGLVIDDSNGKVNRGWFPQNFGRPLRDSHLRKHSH

T9: Cyk3, Q07533
T9 sequence (Q07533 1-83, looked up): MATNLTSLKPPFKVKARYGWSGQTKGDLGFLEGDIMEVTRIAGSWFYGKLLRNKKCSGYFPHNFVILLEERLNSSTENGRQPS

T10: Fus1, P11710
T10 sequence (P11710 432-512, looked up): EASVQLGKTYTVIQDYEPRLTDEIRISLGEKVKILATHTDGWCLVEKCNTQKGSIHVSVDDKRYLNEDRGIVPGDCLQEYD

T11: Hof1, Q05080
T11 sequence (Q05080 590-669, looked up): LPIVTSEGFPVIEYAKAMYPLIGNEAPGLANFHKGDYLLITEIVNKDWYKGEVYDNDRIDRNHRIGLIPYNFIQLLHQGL

T12: Hse1, P38753
T12 sequence (P38753 208-285, looked up): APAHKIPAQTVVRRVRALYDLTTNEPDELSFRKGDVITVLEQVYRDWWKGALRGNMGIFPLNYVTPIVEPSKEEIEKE

T13: Lsb1, P53281
T13 sequence (P53281 45-122, looked up): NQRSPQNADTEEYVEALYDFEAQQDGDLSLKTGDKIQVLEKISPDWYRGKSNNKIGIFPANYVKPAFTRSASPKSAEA

T14: Lsb3, P43603
T14 sequence (P43603 385-451, looked up): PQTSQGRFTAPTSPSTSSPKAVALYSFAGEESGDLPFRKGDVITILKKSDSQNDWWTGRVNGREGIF

T15: Lsb4, P32793
T15 sequence (P32793 402-468, looked up): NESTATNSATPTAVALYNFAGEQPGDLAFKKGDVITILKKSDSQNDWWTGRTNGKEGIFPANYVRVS

T16: Myo5, Q04439
T16 sequence (Q04439 1072-1160, looked up): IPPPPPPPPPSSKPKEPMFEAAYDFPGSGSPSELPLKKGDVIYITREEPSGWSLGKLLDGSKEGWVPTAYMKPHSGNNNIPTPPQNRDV

T17: Nbp2, Q12163
T17 sequence (Q12163 103-180, looked up): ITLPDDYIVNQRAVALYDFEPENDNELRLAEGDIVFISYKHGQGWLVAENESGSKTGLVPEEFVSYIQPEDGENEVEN

T18: Pex13, P80667
T18 sequence (P80667 295-386, looked up): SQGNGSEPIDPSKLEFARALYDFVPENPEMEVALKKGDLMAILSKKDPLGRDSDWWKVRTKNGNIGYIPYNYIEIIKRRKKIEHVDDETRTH

T19: Pin3, Q06449
T19 sequence (Q06449 53-122, looked up): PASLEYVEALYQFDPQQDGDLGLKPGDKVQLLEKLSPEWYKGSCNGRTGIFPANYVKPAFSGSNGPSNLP

T20: Sla1-2, P32790
T20 sequence (P32790 60-140, looked up): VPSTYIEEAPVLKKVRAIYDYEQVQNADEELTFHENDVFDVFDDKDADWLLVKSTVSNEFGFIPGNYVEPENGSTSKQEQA

T21: Sla1-3, P32790
T21 sequence (P32790 344-424, looked up): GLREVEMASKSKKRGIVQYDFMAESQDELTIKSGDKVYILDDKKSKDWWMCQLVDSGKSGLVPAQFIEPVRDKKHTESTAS


Assays:
Assay in all cases: SPOT array
Abp1, P15891 = target: T1, Abp1, P15891; conditions: median of control spots 935
Bbc1, P47068 = target: T2, Bbc1, P47068; conditions: median of control spots 796
Bem1-1, P29366 = conditions: median of control spots 4282
Sequence of Bem1-1, P29366 (P29366 55-141): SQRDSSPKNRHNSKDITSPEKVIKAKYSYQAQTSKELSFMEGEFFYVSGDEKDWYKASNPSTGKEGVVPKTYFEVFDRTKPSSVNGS

Bem1-2, P29366 = conditions: median of control spots 4347
Sequence of Bem1-2, P29366 (P29366 139-227): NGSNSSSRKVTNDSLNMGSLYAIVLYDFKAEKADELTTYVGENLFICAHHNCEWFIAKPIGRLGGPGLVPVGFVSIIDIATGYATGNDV

Boi1, P38041 = target: T3, Boi1, P38041; conditions: median of control spots 1162
Boi2, P39969 = target: T4, Boi2, P39969; conditions: median of control spots 1161
Bud14, P27637 = target: T5, Bud14, P27637; conditions: median of control spots 956
Bzz1-1, P38822 = target: T6, Bzz1-1, P38822; conditions: median of control spots 4446
Bzz1-2, P38822 = target: T7, Bzz1-2, P38822; conditions: median of control spots 4538
Cdc25, P04821 = target: T8, Cdc25, P04821; conditions: median of control spots 969
Cyk3, Q07533 = target: T9, Cyk3, Q07533; conditions: median of control spots 1451
Fus1, P11710 = target: T10, Fus1, P11710; conditions: median of control spots 1200
GST = conditions: median of control spots 978
Hof1, Q05080 = target: T11, Hof1, Q05080; conditions: median of control spots 4086
Hse1, P38753 = target: T12, Hse1, P38753; conditions: median of control spots 1727
Lsb1, P53281 = target: T13, Lsb1, P53281; conditions: median of control spots 388
Lsb3, P43603 = target: T14, Lsb3, P43603; conditions: median of control spots 406
Lsb4, P32793 = target: T15, Lsb4, P32793; conditions: median of control spots 397
Myo3, P36006 = conditions: median of control spots 468
Myo5, Q04439 = target: T16, Myo5, Q04439; conditions: median of control spots 471
Nbp2, Q12163 = target: T17, Nbp2, Q12163; conditions: median of control spots 357
Pex13, P80667 = target: T18, Pex13, P80667; conditions: median of control spots 1341
Pin3, Q06449 = target: T19, Pin3, Q06449; conditions: median of control spots 2171
Rvs167, P39743 = conditions: median of control spots 2707
Sequence of Rvs167, P39743 (P39743 419-482): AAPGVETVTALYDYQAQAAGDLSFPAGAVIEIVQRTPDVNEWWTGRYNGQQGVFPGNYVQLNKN

Sho1, P40073 = conditions: median of control spots 1148
Sequence of Sho1, P40073 (P40073 287-367): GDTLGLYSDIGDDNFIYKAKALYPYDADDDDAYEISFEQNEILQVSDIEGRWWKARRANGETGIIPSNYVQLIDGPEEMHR

Sla1-2, P32790 = target: T20, Sla1-2, P32790; conditions: median of control spots 712
Sla1-3, P32790 = target: T21, Sla1-3, P32790; conditions: median of control spots 5475

Row | Binder | SPOT intensity (Abp1, P15891) | SPOT intensity (Bbc1, P47068) | SPOT intensity (Bem1-1, P29366) | SPOT intensity (Bem1-2, P29366) | SPOT intensity (Boi1, P38041) | SPOT intensity (Boi2, P39969) | SPOT intensity (Bud14, P27637) | SPOT intensity (Bzz1-1, P38822) | SPOT intensity (Bzz1-2, P38822) | SPOT intensity (Cdc25, P04821) | SPOT intensity (Cyk3, Q07533) | SPOT intensity (Fus1, P11710) | SPOT intensity (GST) | SPOT intensity (Hof1, Q05080) | SPOT intensity (Hse1, P38753) | SPOT intensity (Lsb1, P53281) | SPOT intensity (Lsb3, P43603) | SPOT intensity (Lsb4, P32793) | SPOT intensity (Myo3, P36006) | SPOT intensity (Myo5, Q04439) | other results
1 | RRSKSLPITPKSIFN | 117 | 15 | 0 | 0 | 0 | 0 | 10 | 0 | 0 | 15 | 0 | 26 | 2 | 0 | 0 | 0 | 0 | 0 | 0 | 0 | SPOT intensity (Nbp2, Q12163): 0; SPOT intensity (Pex13, P80667): 8; SPOT intensity (Pin3, Q06449): 4; SPOT intensity (Rvs167, P39743): 0; SPOT intensity (Sho1, P40073): 1070; SPOT intensity (Sla1-2, P32790): 1; SPOT intensity (Sla1-3, P32790): 21
2 | NENKKLPPAPTVFGL | 9 | 0 | 2 | 0 | 2 | 0 | 2 | 3 | 0 | 4 | 1 | 0 | 0 | 25 | 0 | 0 | 1 | 0 | 0 | 0 | SPOT intensity (Nbp2, Q12163): 0; SPOT intensity (Pex13, P80667): 9; SPOT intensity (Pin3, Q06449): 0; SPOT intensity (Rvs167, P39743): 2; SPOT intensity (Sho1, P40073): 927; SPOT intensity (Sla1-2, P32790): 0; SPOT intensity (Sla1-3, P32790): 1
3 | IVNKPLPPLPVAGSS | 301 | 0 | 0 | 0 | 1 | 0 | 0 | 0 | 2 | 0 | 0 | 0 | 0 | 1440 | 59 | 0 | 2 | 0 | 0 | 0 | SPOT intensity (Nbp2, Q12163): 0; SPOT intensity (Pex13, P80667): 688; SPOT intensity (Pin3, Q06449): 0; SPOT intensity (Rvs167, P39743): 0; SPOT intensity (Sho1, P40073): 2240; SPOT intensity (Sla1-2, P32790): 0; SPOT intensity (Sla1-3, P32790): 0
4 | KNRKNLPTIPIRLSG | 333 | 25 | 4 | 16 | 3 | 2 | 3 | 0 | 4 | 5 | 1 | 24 | 0 | 26 | 2 | 1220 | 25 | 103 | 5 | 1 | SPOT intensity (Nbp2, Q12163): 47; SPOT intensity (Pex13, P80667): 13; SPOT intensity (Pin3, Q06449): 15; SPOT intensity (Rvs167, P39743): 86; SPOT intensity (Sho1, P40073): 1660; SPOT intensity (Sla1-2, P32790): 0; SPOT intensity (Sla1-3, P32790): 55
